Substrate in this data set: O=P(O)(O)O[C@H]1[C@H](OP(=O)(O)O)[C@@H](OP(=O)(O)O)[C@H](OP(=O)(O)O)[C@@H](OP(=O)(O)O)[C@H]1OP(=O)(O)O
Description: purified protein. Particulars: 50 mM sodium acetate pH 4.0, 50 °C, ionic strength 50 mM (NaCl), 3 min, sodium phytate 0.006-0.800 mM.

One protein from article PMC3981807 can be followed below.

B1: Bd1204 (Bdellovibrio bacteriovorus HD100) (protein)
chain: QKSVSLTPDKPVSTKIPFFMTRPQPTTPVELVFDKDHAAPKPMNYRKSDSLRMSGSATFSPKALKEVAKPVKKNKASLYVFDLRQESHGLINDIPVTWYADRDWANADLNHEEAVRRERRLLGDLRVGDKIGTTAIQSIETEESMIRTGGHQYVRLTVTDHVRPVDSEVDRFIESVRALPENAWVHFHCRAGKGRTTTFMVLYDMLKNAKTDSFEEIIKRNTELSNDYDVLTVPADEKDWKYPYQKERAAFVTEFYNYAKAHPNGEGMLWGEWVLR
With B1, the Km stood at 574 µM and the turnover number (kcat) turned out to be 124 s⁻¹.

A word on the Km: it is the substrate concentration at which the rate is half of its maximum. By kcat is commonly meant the number of substrate molecules converted per active site and unit of time at saturation.
